# Source: patent US7148006
# Molecular target: wild type human PKR, full length (aa 1-551) (human) (UniProt P19525)
# Test: cell-based or functional assay
# wild type human PKR, full length (aa 1-551) (human), sequence (P19525 whole entry, the tested form may be a part): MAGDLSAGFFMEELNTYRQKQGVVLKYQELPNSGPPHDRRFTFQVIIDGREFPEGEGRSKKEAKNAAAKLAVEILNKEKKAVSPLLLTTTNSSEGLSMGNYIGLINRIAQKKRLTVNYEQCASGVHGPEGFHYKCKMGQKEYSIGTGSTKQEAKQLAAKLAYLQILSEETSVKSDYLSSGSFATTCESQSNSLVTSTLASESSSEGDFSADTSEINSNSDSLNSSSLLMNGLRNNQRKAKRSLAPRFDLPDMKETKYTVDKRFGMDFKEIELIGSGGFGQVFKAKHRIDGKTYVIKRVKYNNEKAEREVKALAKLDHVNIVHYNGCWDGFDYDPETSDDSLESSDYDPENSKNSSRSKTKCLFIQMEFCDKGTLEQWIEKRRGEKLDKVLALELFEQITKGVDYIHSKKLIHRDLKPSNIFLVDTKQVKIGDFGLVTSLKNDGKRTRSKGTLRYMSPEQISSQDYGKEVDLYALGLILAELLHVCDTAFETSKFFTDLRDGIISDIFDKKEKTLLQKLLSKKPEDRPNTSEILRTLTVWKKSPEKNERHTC
substance,measurement,value
"NS5A 1b-2 (untagged, expressed from pYES-NS5A 1b-2)",fold decrease in plating efficiency of yeast RY1-1 on galactose medium,10 to 100 fold
